From paper PMC5841803, “Retinal guanylyl cyclase activating protein 1 forms a functional dimer” (PLoS ONE, 2018)
Like-named read-outs stand apart in the source and are kept apart here.

How the values were obtained:
[1] = molecular target: T1, human retinal guanylyl cyclase RetGC1 (human, UniProt Q02846 52-1103)
T1 sequence (looked up): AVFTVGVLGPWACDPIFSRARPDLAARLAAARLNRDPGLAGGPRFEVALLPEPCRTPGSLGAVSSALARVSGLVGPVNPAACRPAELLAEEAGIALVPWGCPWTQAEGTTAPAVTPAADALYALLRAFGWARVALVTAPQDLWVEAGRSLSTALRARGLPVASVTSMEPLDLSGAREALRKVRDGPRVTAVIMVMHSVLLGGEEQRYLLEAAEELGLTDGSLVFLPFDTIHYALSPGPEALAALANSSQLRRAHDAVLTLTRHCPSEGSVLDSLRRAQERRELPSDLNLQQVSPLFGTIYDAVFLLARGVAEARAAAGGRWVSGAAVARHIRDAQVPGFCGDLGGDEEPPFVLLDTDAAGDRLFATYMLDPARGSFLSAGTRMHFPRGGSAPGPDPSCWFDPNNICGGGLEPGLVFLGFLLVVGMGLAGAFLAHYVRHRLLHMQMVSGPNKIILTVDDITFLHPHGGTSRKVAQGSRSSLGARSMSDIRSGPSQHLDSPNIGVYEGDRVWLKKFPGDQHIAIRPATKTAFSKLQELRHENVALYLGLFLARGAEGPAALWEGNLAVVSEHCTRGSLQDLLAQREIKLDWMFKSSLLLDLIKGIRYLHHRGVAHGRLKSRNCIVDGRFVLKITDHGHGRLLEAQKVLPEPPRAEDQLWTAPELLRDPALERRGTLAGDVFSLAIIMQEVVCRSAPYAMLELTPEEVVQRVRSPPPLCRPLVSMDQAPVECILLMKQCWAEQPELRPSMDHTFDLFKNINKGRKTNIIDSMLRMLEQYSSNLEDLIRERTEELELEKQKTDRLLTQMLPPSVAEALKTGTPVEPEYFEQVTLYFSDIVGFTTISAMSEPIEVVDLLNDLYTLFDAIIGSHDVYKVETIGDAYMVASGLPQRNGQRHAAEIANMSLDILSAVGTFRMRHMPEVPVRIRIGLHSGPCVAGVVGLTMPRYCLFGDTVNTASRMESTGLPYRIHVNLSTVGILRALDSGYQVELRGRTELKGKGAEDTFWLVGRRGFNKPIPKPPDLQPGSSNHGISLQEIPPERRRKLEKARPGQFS

[2] = molecular target: T1, human retinal guanylyl cyclase RetGC1; assay: cell-based or functional assay
[3] = molecular target: the molecule itself; assay: SEC; analytical SEC, Superdex 200 HR 10/30, 100 uL of 200 uM protein, 10 mM Tris pH 7.4, 100 mM NaCl, 1 mM DTT, 4 C, with saturating Mg2+ (2 mM) or Ca2+ (2 mM); molar mass from elution time against protein standards
[4] = molecular target: the molecule itself; assay: EPR-DEER; spin-labelled (MTSSL) single-Cys GCAP1 at ~300 uM, 10 mM Tris-d11 pH 7.4, 2 mM MgCl2, D2O, 25% glycerol-d8, frozen, 50 or 80 K; Ca2+-free/Mg2+-bound state, similar data in the Ca2+-bound state; intermolecular spin-label distances
[5] = molecular target: the molecule itself; assay: NMR pulsed-field gradient diffusion; translational diffusion coefficient of spin-labelled GCAP1^CL(T29C); molar mass from D

B1: Cys-less mutant of GCAP1 (GCAP1^CL) (natural protein)
chain: MGNIMSGKSVEELSSTETHQWYKKFMTETPSGQLTLYEFRQFFGLKNLSPWASQYVEQMFETFDFNKDGYIDFMEYVAALSLVLKGKVEQKLRWYFKLYDVDGNGTIDRDELLTIIRAIRAINPTSDSTMTAEEFTDTVFSKIDVNGDGELSLEEFMEGVQKDQMLLDTLTRSLDLTRIVRRLQNGEQDEEGASGRETEAAEADG
modifications: N-terminal myristoylation
[1]
  EC50 of activation of RetGC1 (HEK293 membranes) in the absence of Ca2+ (EGTA), guanylyl cyclase assay: 14 µM

B2: wild type GCAP1 (recombinant bovine myristoylated guanylyl cyclase activating protein 1, D6S) (natural protein, UniProt P46065 1-205, looked up)
chain: MGNIMSGKSVEELSSTECHQWYKKFMTECPSGQLTLYEFRQFFGLKNLSPWASQYVEQMFETFDFNKDGYIDFMEYVAALSLVLKGKVEQKLRWYFKLYDVDGNGCIDRDELLTIIRAIRAINPCSDSTMTAEEFTDTVFSKIDVNGDGELSLEEFMEGVQKDQMLLDTLTRSLDLTRIVRRLQNGEQDEEGASGRETEAAEADG
modifications: N-terminal myristoylation
notes: 15N-labelled for NMR; also called GCAP1 D6S mutant; source: E. coli BL21(DE3), co-expressed with yeast N-myristoyl CoA transferase, purified
[2]
  EC50 of activation of RetGC1 (HEK293 membranes) in the absence of Ca2+ (EGTA), guanylyl cyclase assay: < 2 µM
[3]
  stoichiometry N: 2

B3: GCAP1^CL(E57C), nitroxide spin-labelled (natural protein, bovine, UniProt P46065 1-205, looked up)
chain: MGNIMSGKSVEELSSTETHQWYKKFMTETPSGQLTLYEFRQFFGLKNLSPWASQYVCQMFETFDFNKDGYIDFMEYVAALSLVLKGKVEQKLRWYFKLYDVDGNGTIDRDELLTIIRAIRAINPTSDSTMTAEEFTDTVFSKIDVNGDGELSLEEFMEGVQKDQMLLDTLTRSLDLTRIVRRLQNGEQDEEGASGRETEAAEADG
modifications: N-terminal myristoylation; MTSSL nitroxide spin-label on Cys57
notes: GCAP1, bovine, D6S background, Cys-less (all four native Cys C18, C29, C106, C125 to Thr), with a single Cys at 57; source: E. coli BL21(DE3), co-expressed with yeast N-myristoyl CoA transferase, purified, labelled with MTSSL
[4]
  binding result: binds

B4: GCAP1^CL(E133C), nitroxide spin-labelled (natural protein, bovine, UniProt P46065 1-205, looked up)
chain: MGNIMSGKSVEELSSTETHQWYKKFMTETPSGQLTLYEFRQFFGLKNLSPWASQYVEQMFETFDFNKDGYIDFMEYVAALSLVLKGKVEQKLRWYFKLYDVDGNGTIDRDELLTIIRAIRAINPTSDSTMTACEFTDTVFSKIDVNGDGELSLEEFMEGVQKDQMLLDTLTRSLDLTRIVRRLQNGEQDEEGASGRETEAAEADG
modifications: N-terminal myristoylation; MTSSL nitroxide spin-label on Cys133
notes: GCAP1, bovine, D6S background, Cys-less (all four native Cys C18, C29, C106, C125 to Thr), with a single Cys at 133; source: E. coli BL21(DE3), co-expressed with yeast N-myristoyl CoA transferase, purified, labelled with MTSSL
[4]
  binding result: binds

B5: GCAP1^CL(E154C), nitroxide spin-labelled (natural protein, bovine, UniProt P46065 1-205, looked up)
chain: MGNIMSGKSVEELSSTETHQWYKKFMTETPSGQLTLYEFRQFFGLKNLSPWASQYVEQMFETFDFNKDGYIDFMEYVAALSLVLKGKVEQKLRWYFKLYDVDGNGTIDRDELLTIIRAIRAINPTSDSTMTAEEFTDTVFSKIDVNGDGELSLCEFMEGVQKDQMLLDTLTRSLDLTRIVRRLQNGEQDEEGASGRETEAAEADG
modifications: N-terminal myristoylation; MTSSL nitroxide spin-label on Cys154
notes: GCAP1, bovine, D6S background, Cys-less (all four native Cys C18, C29, C106, C125 to Thr), with a single Cys at 154; source: E. coli BL21(DE3), co-expressed with yeast N-myristoyl CoA transferase, purified, labelled with MTSSL
[4]
  binding result: binds

B6: GCAP1^CL(T29C), spin-labelled (natural protein, bovine, UniProt P46065 1-205, looked up)
chain: MGNIMSGKSVEELSSTETHQWYKKFMTECPSGQLTLYEFRQFFGLKNLSPWASQYVEQMFETFDFNKDGYIDFMEYVAALSLVLKGKVEQKLRWYFKLYDVDGNGTIDRDELLTIIRAIRAINPTSDSTMTAEEFTDTVFSKIDVNGDGELSLEEFMEGVQKDQMLLDTLTRSLDLTRIVRRLQNGEQDEEGASGRETEAAEADG
modifications: N-terminal myristoylation; MTSSL spin-label on Cys29 (N-O group reduced for the HSQC spectrum)
notes: GCAP1, bovine, D6S background, Cys-less parent (C18, C29, C106, C125 to Thr) in which T29C restores the natural Cys29; also called spin-labeled GCAP1^CL(T29C); source: E. coli BL21(DE3), co-expressed with yeast N-myristoyl CoA transferase, purified, labelled with MTSSL
[5]
  stoichiometry N: 4
